From patent publication US20130281374A1

Biological target: T1, human GIP receptor (human), P48546
T1 chain: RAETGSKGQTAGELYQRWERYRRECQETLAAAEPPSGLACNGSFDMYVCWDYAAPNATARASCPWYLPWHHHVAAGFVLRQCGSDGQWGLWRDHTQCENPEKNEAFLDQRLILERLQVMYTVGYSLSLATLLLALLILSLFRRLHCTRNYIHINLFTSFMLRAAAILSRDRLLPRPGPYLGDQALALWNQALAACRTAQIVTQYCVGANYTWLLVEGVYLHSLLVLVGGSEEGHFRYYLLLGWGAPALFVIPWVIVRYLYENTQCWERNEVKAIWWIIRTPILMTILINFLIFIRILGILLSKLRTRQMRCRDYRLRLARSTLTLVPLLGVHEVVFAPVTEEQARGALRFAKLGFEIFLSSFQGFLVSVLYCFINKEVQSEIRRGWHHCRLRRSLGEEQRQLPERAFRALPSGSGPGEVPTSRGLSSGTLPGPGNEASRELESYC
Experiment: 125I-GIP displacement, HEK-GIPR membranes

B1: 0601GIP4843 (peptide)
peptide: HGEGTLISDYSIAMDKIHQQDFVNWLLAQKPKKIRYS
modifications: not checked
B1 was tested. Which % Inh 10 nM did it give?
Its % Inh 10 nM is 3%.
